Series [1] deals with T1, DndI (Salmonella enterica, UniProt E2D680). Details: gene A6E75_01280. Particulars: r3.1 buffer, 10 mM MgCl2, pH 7.9, 37 °C; without or with phosphorothioate pUC19 DNA.
Series [2] addresses T1, DndI. Put plainly: nucleoside triphosphatase assay. It is filed as biochemical. More on the design: gene A6E75_01280; full length (residues 1-596); homodimer in crystal; 1,788 bp dndI fragment cloned for FRET construct, but ORF printed elsewhere as 1,971 bp. The note with it: r3.1 buffer, 10 mM MgCl2, pH 7.9, 37 °C; without or with phosphorothioate pUC19 DNA buffer presumed.

The target of series [3] is DndI R87A (Salmonella enterica serovar Cerro 87, UniProt E2D680 1-596, R87A). Kind of series: EMSA. Particulars: protein: recombinant; tags: His (pET28a); blunt. A general note: Mobility shift assays separate free from complexed probe on a gel.
Series [4] concerns the target T2, DndI CTD (Salmonella enterica serovar Cerro 87, UniProt E2D680 239-596).
T2 sequence: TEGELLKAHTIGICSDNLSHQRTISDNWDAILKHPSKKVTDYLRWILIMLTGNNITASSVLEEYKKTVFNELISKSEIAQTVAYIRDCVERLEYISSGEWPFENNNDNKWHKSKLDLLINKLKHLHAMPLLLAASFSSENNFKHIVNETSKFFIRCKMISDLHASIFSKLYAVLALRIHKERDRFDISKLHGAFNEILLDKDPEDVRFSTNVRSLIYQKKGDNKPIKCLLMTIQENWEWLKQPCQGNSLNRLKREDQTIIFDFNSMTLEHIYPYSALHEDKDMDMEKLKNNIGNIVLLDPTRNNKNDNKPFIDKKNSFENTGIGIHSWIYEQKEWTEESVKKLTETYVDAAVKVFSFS
Put plainly: EMSA; EMSA: 100 nM 70 bp DNA, 10 uL, NEB r3.1 buffer (composition and pH not given), 4 C, 1 h, 6% polyacrylamide gel. The note with it: protein: recombinant; tags: His (pET28a); blunt.

Series [5] concerns the target T3, DndI (Salmonella enterica serovar Cerro 87, UniProt E2D680 1-596).
T3 sequence: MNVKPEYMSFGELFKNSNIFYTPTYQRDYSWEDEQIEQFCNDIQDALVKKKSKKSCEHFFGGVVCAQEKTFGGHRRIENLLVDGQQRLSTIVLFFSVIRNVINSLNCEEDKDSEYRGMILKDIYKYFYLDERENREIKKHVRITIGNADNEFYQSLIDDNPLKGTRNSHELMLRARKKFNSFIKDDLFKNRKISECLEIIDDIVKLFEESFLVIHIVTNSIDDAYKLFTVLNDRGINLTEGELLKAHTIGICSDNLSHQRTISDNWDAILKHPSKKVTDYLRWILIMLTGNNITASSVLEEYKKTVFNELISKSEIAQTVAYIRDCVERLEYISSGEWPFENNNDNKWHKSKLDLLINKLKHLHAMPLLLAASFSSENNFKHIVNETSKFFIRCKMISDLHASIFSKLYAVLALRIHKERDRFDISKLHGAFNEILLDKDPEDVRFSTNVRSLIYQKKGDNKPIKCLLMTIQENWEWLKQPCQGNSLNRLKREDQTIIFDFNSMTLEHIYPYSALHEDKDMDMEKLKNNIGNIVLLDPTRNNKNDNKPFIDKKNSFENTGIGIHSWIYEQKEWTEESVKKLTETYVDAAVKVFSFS
The series is described as above. The note with it: protein: recombinant; tags: His (pET28a); chain copies: 2; blunt.

Here are results for 3 molecules from paper PMC11662687, “Molecular basis of the phosphorothioation-sensing antiphage defense system IscS–DndBCDE–DndI” (Nucleic Acids Research, 2024).

For orientation: Kd means the equilibrium constant for the complex coming apart.

Turning to `Nc1ncnc2c1ncn2[C@@H]1O[C@H](COP(=O)(O)OP(=O)(O)OP(=O)(O)O)[C@@H](O)[C@H]1O` [ATP], in series [1], the “malachite green phosphate release” value is listed as “DndI exhibited an intrinsic ATPase activity”.

As to `Nc1nc2c(ncn2[C@@H]2O[C@H](COP(=O)(O)OP(=O)(O)OP(=O)(O)O)[C@@H](O)[C@H]2O)c(=O)[nH]1` [GTP], the nucleoside triphosphatase assay entry in series [2] was “DndI demonstrated weak hydrolytic capabilities with regard to GTP, CTP and UTP”.

B1: 70 bp GAAC/GTTC EMSA DNA (PT-free) (dsDNA)
DNA 1: GCTGCAACAGGATGCCAATAAGACCAAAAAAACCAGCCAGCAAGCAGAGAACGACGAGAGCTGGCAATCT
DNA 2: AGATTGCCAGCTCTCGTCGTTCTCTGCTTGCTGGCTGGTTTTTTTGGTCTTATTGGCATCCTGTTGCAGC
Take B1: the dissociation constant Kd in series [3] came out at 3.3 µM; in series [4], 0.66 µM; in series [5] it was 9.31 µM.
